Test results reported in patent US20110306057A1.

Molecular target: PP2A regulatory subunit B56γ (human (endogenous in human HEK TER cells)), Q13362
Test: anti-FLAG co-IP from HEK TER cells, immunoblot, densitometry; +++ >90%, ++ 50-90%, + <50%
Conditions: remark: other sources report otherwise

Sequence of PP2A regulatory subunit B56γ (human (endogenous in human HEK TER cells)), Q13362 (Q13362 whole entry): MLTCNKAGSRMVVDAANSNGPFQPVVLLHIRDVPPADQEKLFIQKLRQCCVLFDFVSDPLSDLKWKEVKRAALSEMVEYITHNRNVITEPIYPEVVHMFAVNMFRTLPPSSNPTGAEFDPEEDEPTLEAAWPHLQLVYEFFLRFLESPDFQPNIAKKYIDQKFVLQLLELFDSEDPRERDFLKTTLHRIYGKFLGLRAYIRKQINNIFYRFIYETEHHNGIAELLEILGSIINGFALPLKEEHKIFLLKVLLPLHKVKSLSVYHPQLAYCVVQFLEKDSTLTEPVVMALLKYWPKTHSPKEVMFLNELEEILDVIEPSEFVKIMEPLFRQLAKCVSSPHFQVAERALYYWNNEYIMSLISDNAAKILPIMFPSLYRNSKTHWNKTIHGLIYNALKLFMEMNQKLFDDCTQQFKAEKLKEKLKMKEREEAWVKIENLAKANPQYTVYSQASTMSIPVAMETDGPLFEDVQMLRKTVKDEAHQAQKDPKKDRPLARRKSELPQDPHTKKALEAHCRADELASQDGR

binding level (percent, co-immunoprecipitation densitometry): > 90%
B1: wild type (WT) FLAG epitope-tagged version of PP2A Aβ, P30154 1-601 (protein, not shown: small tags and cut ends)
chain: MAGASELGTGPGAAGGDGDDSLYPIAVLIDELRNEDVQLRLNSIKKLSTIALALGVERTRSELLPFLTDTIYDEDEVLLALAEQLGNFTGLVGGPDFAHCLLPPLENLATVEETVVRDKAVESLRQISQEHTPVALEAYFVPLVKRLASGDWFTSRTSACGLFSVCYPRASNAVKAEIRQQFRSLCSDDTPMVRRAAASKLGEFAKVLELDSVKSEIVPLFTSLASDEQDSVRLLAVEACVSIAQLLSQDDLETLVMPTLRQAAEDKSWRVRYMVADRFSELQKAMGPKITLNDLIPAFQNLLKDCEAEVRAAAAHKVKELGENLPIEDRETIIMNQILPYIKELVSDTNQHVKSALASVIMGLSTILGKENTIEHLLPLFLAQLKDECPDVRLNIISNLDCVNEVIGIRQLSQSLLPAIVELAEDAKWRVRLAIIEYMPLLAGQLGVEFFDEKLNSLCMAWLVDHVYAIREAATNNLMKLVQKFGTEWAQNTIVPKVLVMANDPNYLHRMTTLFCINALSEACGQEITTKQMLPIVLKMAGDQVANVRFNVAKSLQKIGPILDTNALQGEVKPVLQKLGQDEDMDVKYFAQEAISVLALA
